{"source": "paper PMC3835166", "about": "(Journal of molecular biology, 2012)", "binders": {"B1": {"name": "raver1 RRM1-3 domains (residues 39-321) (domain or fragment, human, UniProt Q8IY67 39-321, looked up)", "chain": "LDPEEIRKRLEHTERQFRNRRKILIRGLPGDVTNQEVHDLLSDYELKYCFVDKYKGTAFVTLLNGEQAEAAINAFHQSRLRERELSVQLQPTDALLCVANLPPSLTQQQFEELVRPFGSLERCFLVYSERTGQSKGYGFAEYMKKDSAARAKSDLLGKPLGPRTLYVHWTDAGQLTPALLHSRCLCVDRLPPGFNDVDALCRALSAVHSPTFCQLACGQDGQLKGFAVLEYETAEMAEEAQQQADGLSLGGSHLRVSFCAPGPPGRSMLAALIAAQATALNRG"}}, "key": {"[1]": {"target": "T1, full-length human metavinculin (human, UniProt P18206 1-1134)", "T1 sequence (looked up)": "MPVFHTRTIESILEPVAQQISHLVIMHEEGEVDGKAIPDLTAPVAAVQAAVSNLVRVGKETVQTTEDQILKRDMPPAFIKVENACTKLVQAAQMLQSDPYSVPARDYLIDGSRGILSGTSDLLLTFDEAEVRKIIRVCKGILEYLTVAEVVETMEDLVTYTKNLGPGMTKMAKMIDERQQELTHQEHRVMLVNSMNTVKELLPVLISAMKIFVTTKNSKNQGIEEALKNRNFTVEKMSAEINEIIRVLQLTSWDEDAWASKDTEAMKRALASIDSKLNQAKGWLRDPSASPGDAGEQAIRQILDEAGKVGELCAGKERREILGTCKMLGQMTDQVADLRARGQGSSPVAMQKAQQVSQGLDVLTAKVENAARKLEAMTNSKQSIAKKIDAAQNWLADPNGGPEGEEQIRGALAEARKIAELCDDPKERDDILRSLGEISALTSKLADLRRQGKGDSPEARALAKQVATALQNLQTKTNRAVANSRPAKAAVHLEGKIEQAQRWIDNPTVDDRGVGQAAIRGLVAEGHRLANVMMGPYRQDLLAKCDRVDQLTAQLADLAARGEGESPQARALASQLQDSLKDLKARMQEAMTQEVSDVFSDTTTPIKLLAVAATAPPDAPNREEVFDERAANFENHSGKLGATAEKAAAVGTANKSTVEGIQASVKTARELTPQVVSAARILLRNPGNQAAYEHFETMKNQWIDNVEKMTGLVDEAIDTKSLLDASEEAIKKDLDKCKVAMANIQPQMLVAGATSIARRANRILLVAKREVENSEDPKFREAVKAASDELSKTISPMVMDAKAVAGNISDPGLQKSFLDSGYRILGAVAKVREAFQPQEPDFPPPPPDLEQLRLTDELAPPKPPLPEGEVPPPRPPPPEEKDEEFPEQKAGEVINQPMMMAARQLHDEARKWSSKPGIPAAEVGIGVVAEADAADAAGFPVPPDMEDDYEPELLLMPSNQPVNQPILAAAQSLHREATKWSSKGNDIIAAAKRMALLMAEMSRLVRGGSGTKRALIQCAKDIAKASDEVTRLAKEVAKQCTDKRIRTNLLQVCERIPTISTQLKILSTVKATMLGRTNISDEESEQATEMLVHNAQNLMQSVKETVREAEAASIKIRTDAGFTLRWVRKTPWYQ", "assay": "native gel or EMSA"}, "[2]": {"target": "B1", "assay": "native gel or EMSA"}, "[3]": {"target": "metavinculin tail MVt;raver1 RRM1-3 (Homo sapiens;Homo sapiens?, UniProt P18206;Q8IY67 856-1134;39-321, |)", "assay": "EMSA"}, "raver1 RRM2-RRM3": {"target": "T2, raver1 RRM2-RRM3 (UniProt Q8IY67 129-321)", "T2 sequence": "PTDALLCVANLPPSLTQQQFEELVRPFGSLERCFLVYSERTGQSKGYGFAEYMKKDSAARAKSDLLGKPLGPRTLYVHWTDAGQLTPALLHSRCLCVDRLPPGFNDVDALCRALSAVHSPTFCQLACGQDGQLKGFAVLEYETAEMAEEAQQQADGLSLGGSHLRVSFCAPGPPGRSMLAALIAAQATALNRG", "assay": "EMSA"}, "raver1 RRM1-3": {"target": "T3, raver1 RRM1-3 (UniProt Q8IY67 39-321)", "T3 sequence": "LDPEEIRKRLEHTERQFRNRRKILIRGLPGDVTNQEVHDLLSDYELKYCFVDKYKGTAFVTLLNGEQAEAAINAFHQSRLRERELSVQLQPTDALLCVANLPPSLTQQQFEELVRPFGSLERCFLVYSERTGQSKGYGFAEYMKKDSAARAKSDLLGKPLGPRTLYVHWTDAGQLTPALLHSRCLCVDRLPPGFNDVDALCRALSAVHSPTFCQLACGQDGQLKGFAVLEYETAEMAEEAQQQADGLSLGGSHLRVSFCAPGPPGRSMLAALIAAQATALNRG", "assay": "EMSA"}}}
{"binder": "B1", "values": [{"measurement": "binding result", "setting": "[1]", "value": "binds"}]}
{"binder": "MVt (metavinculin tail domain, residues 856-1134) (domain or fragment, human, UniProt P18206 856-1134, looked up) DELAPPKPPLPEGEVPPPRPPPPEEKDEEFPEQKAGEVINQPMMMAARQLHDEARKWSSKPGIPAAEVGIGVVAEADAADAAGFPVPPDMEDDYEPELLLMPSNQPVNQPILAAAQSLHREATKWSSKGNDIIAAAKRMALLMAEMSRLVRGGSGTKRALIQCAKDIAKASDEVTRLAKEVAKQCTDKRIRTNLLQVCERIPTISTQLKILSTVKATMLGRTNISDEESEQATEMLVHNAQNLMQSVKETVREAEAASIKIRTDAGFTLRWVRKTPWYQ", "values": [{"measurement": "binding result", "setting": "[2]", "value": "binds"}]}
{"binder": "UCAUGCAGUCUG (ssRNA)", "note": "[vinculin RNA 3089-3100]", "values": [{"measurement": "binding result", "setting": "[3]", "value": "binds"}, {"measurement": "binding result", "setting": "raver1 RRM2-RRM3", "value": "no binding"}, {"measurement": "binding result", "setting": "raver1 RRM1-3", "value": "binds"}]}
